Measurements published in patent US20040258747A1 (G GASLINI CHILDREN S HOSPITAL, published 2004).
Ends that are not written are not given here.

Molecular target: T1, CD13 (aminopeptidase N) as expressed on THP-1 cells (human acute monocytic leukemia) (human, UniProt P15144 2-967)
T1 construct: whole, on cells; The CD13 form on THP-1 is recognised by WM15 but not by the NGR liposomes
Assay: FACS of doxorubicin fluorescence, THP-1 cells 1 h at 4 C

T1 sequence (P15144 2-967): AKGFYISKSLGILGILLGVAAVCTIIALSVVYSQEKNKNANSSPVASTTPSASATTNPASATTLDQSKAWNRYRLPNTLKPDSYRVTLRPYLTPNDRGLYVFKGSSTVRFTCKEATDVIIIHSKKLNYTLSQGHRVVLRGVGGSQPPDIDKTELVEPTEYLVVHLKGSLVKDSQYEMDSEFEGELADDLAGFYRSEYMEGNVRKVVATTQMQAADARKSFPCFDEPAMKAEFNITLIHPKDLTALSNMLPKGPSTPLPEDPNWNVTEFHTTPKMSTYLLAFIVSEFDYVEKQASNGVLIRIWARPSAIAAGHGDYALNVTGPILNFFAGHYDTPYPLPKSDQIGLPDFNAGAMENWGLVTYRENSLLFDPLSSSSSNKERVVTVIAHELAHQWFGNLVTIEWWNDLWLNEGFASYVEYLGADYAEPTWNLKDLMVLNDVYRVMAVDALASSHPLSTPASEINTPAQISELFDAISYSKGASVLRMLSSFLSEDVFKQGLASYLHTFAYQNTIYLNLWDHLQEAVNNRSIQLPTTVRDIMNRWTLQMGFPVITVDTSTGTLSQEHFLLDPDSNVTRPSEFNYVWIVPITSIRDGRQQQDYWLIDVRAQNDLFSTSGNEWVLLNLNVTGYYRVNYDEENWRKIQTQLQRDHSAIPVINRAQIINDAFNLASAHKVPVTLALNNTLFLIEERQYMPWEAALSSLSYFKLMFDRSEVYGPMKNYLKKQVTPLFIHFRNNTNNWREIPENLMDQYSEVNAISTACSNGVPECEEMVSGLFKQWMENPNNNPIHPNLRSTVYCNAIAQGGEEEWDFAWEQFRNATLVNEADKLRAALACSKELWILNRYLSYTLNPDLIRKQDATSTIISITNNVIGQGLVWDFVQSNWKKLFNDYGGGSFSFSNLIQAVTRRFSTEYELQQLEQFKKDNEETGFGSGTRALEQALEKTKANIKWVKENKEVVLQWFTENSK

B1: ARA-targeted (sham-targeted) sterically stabilized liposomal doxorubicin (ARA-SL[DXR]): control peptide GARAGGVRSSSRTPSDKYC coupled to the liposome surface (peptide)
peptide: GARAGGVRSSSRTPSDKYC(PEG2000‑DSPE‑MAL (liposome))
modifications: not fully specified; also: on surface of doxorubicin-loaded sterically stabilized liposome
notes: Control formulation; Same liposome as NGR-SL[DXR], with NGR replaced by ARA in the peptide; also called mismatched peptide ARA
- binding result: no binding
